Results as given in the supplement of paper PMC10567573.

B1: CLCN6 (parent)
chain: VGEIVGIITRHNLTYEFLQARLRQ
B2: C20orf112 (parent)
chain: YANGGLNYSYRGYGALSSNLQPPA

Variants of: B1
Test: protein stability index of a GFP-peptide fusion (GPS, HEK-293T) (PSI 1-6); higher = more stable
Details: c terminus: a fixed tail appended
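Also: lentivirally expressed fusions sorted by FACS into six bins by GFP to DsRed ratio, PSI derived from sequencing read proportions per bin multiplied by bin number.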

Protein stability index, by site and new letter:
H11: G 1.76
I7: L 2.53; G 2.44; E 2.07; D 2.38; N 2.18
L22: M 2.37; K 1.93; N 1.15; P 1.53
G6: S 2.95
G2: H 2.81; K 2.53
E16: P 1.8; R 2.46; S 2.17
V1: A 1.44; R 1.58; H 2.82
T14: Q 1.26
I4: D 2.66; S 2.23; L 2.59; P 2.88
L18: K 2.67; A 2.67; I 2.62; Q 2.07; S 1.02
L13: N 1.08; C 2.08; P 1.94
Y15: G 1.65; D 1.51
T9: G 2.63; P 2.78; F 2.35; K 1.29; E 1.38; R 1.4
Q24: Y 2.14; V 2.87; N 2.8
N12: C 2.21; K 2.04; Q 4
E3: C 2.72; Y 3.28; V 2.62; F 1.43
F17: G 3.15; E 2.01; Q 2.76
I8: Q 2.47; L 2.03
Q19: Y 1.01; I 3.35
V5: E 1.76; P 2.46; N 1.75
R21: W 2.19; Q 2.57; Y 1.86; G 1.89
R10: K 2.19; T 3.15; L 4.12
R23: V 5.95

Variants of: B2
Test: as above
Details: c terminus: a fixed tail appended

Protein stability index of substitutions, site by site:
Y13: W 2.96; R 1.42; H 2.01; C 2.63; T 1.66; Q 2.13; E 1.33; L 2.87; I 2.29; N 1.84; V 1.73; S 1.96; K 2.12; P 2.04; F 2.5; A 1.93; G 1.77; M 2.56; D 1.82
N19: V 1.99; M 1.88; S 2.44; E 1.11; T 1.91; H 1.43; D 2.15; I 1.71; P 2.18; F 1.53; R 1.99; C 2.05; K 2.96; A 1.71; W 2.61; Q 2.14; L 2.53; G 1.42; Y 1.57
L20: I 2.54; W 1.84; F 1.55; K 2.27; P 1.88; M 1.52; D 1.36; S 2.34; R 1.73; H 1.69; Y 1.34; N 2.11; T 1.55; Q 1.71; V 1.84; E 1.37; A 1.79; C 2.7; G 2.28
P23: W 2.61; M 2.3; E 2.05; Q 1.77; A 1.81; T 1.6; K 1.97; G 2.6; F 2.52; V 1.84; D 2.09; L 1.54; N 2.17; I 2.09; S 1.65; R 1.81; Y 1.9; H 1.34; C 1.92
A15: Y 2.97; R 2.8; G 1.87; H 2.62; L 2.6; P 2.52; K 2.24; E 2.37; M 1.49; Q 1.77; I 2.42; N 2.4; F 2.68; D 2.07; S 2.22; C 2.32; V 1.85; T 2.75; W 1.88
G14: I 3.6; T 2.8; K 2.21; D 1.54; W 3.05; S 2.32; Y 2.91; A 1.76; M 2.18; L 3.28; C 3.39; R 2.7; P 2.54; V 2.4; H 2.07; F 2.52; Q 1.76; N 2.87; E 2.45
P22: Q 2; T 1.71; L 2.27; E 2.41; M 1.63; Y 3.09; W 1.97; S 1.62; D 1.6; A 1.5; F 3.69; G 2.65; I 2.35; K 2.66; C 2.97; V 1.83; H 1.94; R 1.76; N 2.33
S18: M 2.06; H 1.8; V 1.73; T 2.05; W 2.07; Y 1.67; D 1.42; N 1.57; I 1.78; G 1.58; Q 2.6; R 2.21; F 1.72; E 1.56; C 2.17; L 1.85; K 1.61; P 2.2; A 2.15
A24: I 2.43; Q 2.27; S 1.82; L 1.62; N 1.9; C 2.37; W 1.86; F 1.78; K 2; Y 1.75; P 2.73; E 1.95; V 2.23; T 2.52; M 1.35; G 3.04; R 2.48; H 2.19; D 1.86
R11: Q 2.32; S 2.19; Y 2.21; C 3.49; F 2.31; V 2.09; N 2.27; T 1.53; H 1.69; I 1.98; M 2.48; A 1.72; W 2.44; P 2.06; G 2.24; L 2.31; K 2.09; D 1.82; E 1.94
G12: N 1.93; M 2.48; I 2.72; E 1.63; L 2.31; T 2.23; A 2.46; K 1.97; F 1.67; H 2.55; P 1.91; V 3.16; Q 1.86; D 1.42; Y 3; C 2.85; R 1.08; S 1.91; W 2.08
S17: D 1.87; R 2.56; K 1.94; G 3.12; V 2.33; Q 1.55; Y 2.53; H 1.9; L 1.39; C 2.2; N 1.88; M 2.17; I 3.55; A 1.58; F 2.49; W 1.85; T 2.15; P 1.9; E 2.23
L16: V 2.21; Y 2.05; S 2.03; Q 2.02; W 2.68; G 2.61; H 2.48; P 2.57; K 1.87; E 2.54; N 2.61; I 2.43; T 1.76; R 2.3; A 2.11; M 1.75; D 1.68; C 1.64; F 1.67
Q21: R 1.75; G 1.21; Y 2.29; T 2.61; M 1.71; V 1.59; C 1.74; F 2.26; N 1.64; L 1.99; K 2.17; S 2.5; H 2.04; D 2.22; P 2.28; I 2.76; E 2.16; W 1.75; A 1.66
